In patent publication US20240309087A1 (SHANGHAI JUNSHI BIOSCIENCES, published 2024):

T1: hCD112R mFC recombinant protein (human; murine, UniProt Q6DKI7 41-160)
T1 construct: range 41-160; expressed in 293E cells; also called hCD112R ECD mFC; hCD112R-ECD-mFC; not shown: murine IgG2a Fc domain (MX2-mFc vector)
T1 sequence (looked up): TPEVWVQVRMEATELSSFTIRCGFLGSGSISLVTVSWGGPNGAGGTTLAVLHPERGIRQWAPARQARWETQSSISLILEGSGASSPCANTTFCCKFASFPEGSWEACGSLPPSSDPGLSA

T2: human CD112R on Jurkat CD112R effector cells (human, UniProt Q6DKI7 1-326)
T2 sequence (looked up): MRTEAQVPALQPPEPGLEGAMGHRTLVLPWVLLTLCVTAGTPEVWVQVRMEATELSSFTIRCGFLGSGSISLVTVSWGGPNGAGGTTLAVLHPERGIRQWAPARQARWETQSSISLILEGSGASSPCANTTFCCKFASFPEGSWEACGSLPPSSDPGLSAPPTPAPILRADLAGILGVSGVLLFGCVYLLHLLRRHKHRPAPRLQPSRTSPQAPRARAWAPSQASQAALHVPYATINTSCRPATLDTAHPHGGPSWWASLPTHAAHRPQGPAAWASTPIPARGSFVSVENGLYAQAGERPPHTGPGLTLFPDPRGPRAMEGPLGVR

B1: Hu50 (antibody, IgG4, V domains shown)
VH: EVQLVESGGGLVKPGGSLRLSCAASGFTFSSYHMSWVRQAPGKGLELVSAINSNGINTYYLDTVKGRFTISRDNAKNSLYLQMNSLRAEDTAVYYCARHEDYYGFAMDYWGQGTLVTVSS
VL: AIQMTQSPSSLSASVGDRVTITCKASQSVTNDVAWYQQKPGKAPKLLIYYVSNHYTGVPSRFSGSGSGTDFTLTISSLQPEDFATYFCQQAYRSPWTFGQGTKLEIK
notes: humanized IgG4
B2: Hu51 (antibody, IgG4, V domains shown)
VH: EVQLVESGGGLVKPGGSLRLSCAASGFTFSSYHMSWVRQAPGKGLELVSAINSNGINTYYLDTVKGRFTISRDNAKNSLYLQMNSLRAEDTAVYYCARHEDYYGFAMDYWGQGTLVTVSS
VL: EIVMTQSPPTLSLSPGERVTLSCKASQSVSNDVAWYQEKPGQAPRLLIYYVSHRFTGIPARFSGSGSGTDFTLTISSLQPEDFAVYYCHQAYRSPWTFGQGTKLEIK
notes: humanized IgG4
B3: Hu11 (antibody, IgG4, V domains shown)
VH: EVQLVESGGGLVKPGGSLRLSCAASGFTFSSYHMSWVRQAPGKGLELVSAINSNDINTYYLDTVKGRFTISRDIAKNSLYLQMNSLRAEDTAVYYCARHEDYYGFAMDYWGQGTLVTVSS
VL: DIQMTQSPSSLSASVGDRVTITCKASQSVSNDVAWYQQKPGKAPKLLIYYVSNRFTGVPSRFSGSGSGTDFTLTISSLQPEDFATYFCQQAYRSPWTFGQGTKLEIK
notes: humanized IgG4
B4: Hu3 (antibody, IgG4, V domains shown)
VH: EVQLVESGGGLVQPGGSLRLSCAASGFTFSSYHMSWVRQAPGKGLELVAAINSNDINTYYLDTVKGRFTISRDIAKNSLYLQMNSLRAEDTAVYYCARHEDYYGFAMDYWGQGTLVTVSS
VL: EIVMTQSPPTLSLSPGERVTLSCKASQSVSNDVAWYQEKPGQAPRLLIYYVSHRFTGIPARFSGSGSGTDFTLTISSLQPEDFAVYYCHQAYRSPWTFGQGTKLEIK
notes: humanized IgG4; also called Hu-03
B5: Hu14 (antibody, IgG4, V domains shown)
VH: EVQLVESGGGLVKPGGSLRLSCAASGFTFSSYHMSWVRQAPGKGLELVSAISRDGDSTYYPDTVKGRFTISRDNAKNSLYLQMNSLRAEDTAVYYCSRHEDYFGFAMDSWGQGTLVTVSS
VL: AIQMTQSPSSLSASVGDRVTITCKASQSVTNDVAWYQQKPGKAPKLLIYYVSNHYTGVPSRFSGSGSGTDFTLTISSLQPEDFATYFCQQAYRSPWTFGQGTKLEIK
notes: humanized IgG4
B6: Hu20 (antibody, IgG4, V domains shown)
VH: EVQLVESGGGLVKPGGSLRLSCAASGFTFSSYHMSWVRQAPGKGLELVSAISRDGDSTYYPDTVKGRFTISRDDAENSLYLQMNSLRAEDTAVYYCSRHEDYFGFAMDSWGQGTLVTVSS
VL: AIQMTQSPSSLSASVGDRVTITCKASQSVTNDVAWYQQKPGKAPKLLIYYVSNHYTGVPSRFSGSGSGTDFTLTISSLQPEDFATYFCQQAYRSPWTFGQGTKLEIK
notes: humanized IgG4
B7: Hu2 (antibody, IgG4, V domains shown)
VH: EVQLVESGGGLVQPGGSLRLSCAASGFTFSSYHMSWVRQAPGKGLELVAAINSNDINTYYLDTVKGRFTISRDIAKNSLYLQMNSLRAEDTAVYYCARHEDYYGFAMDYWGQGTLVTVSS
VL: AIQMTQSPSSLSASVGDRVTITCKASQSVTNDVAWYQQKPGKAPKLLIYYVSNHYTGVPSRFSGSGSGTDFTLTISSLQPEDFATYFCQQAYRSPWTFGQGTKLEIK
notes: humanized IgG4; also called Hu-02
B8: Hu56 (antibody, IgG4, V domains shown)
VH: EVQLVESGGGLVQPGGSLRLSCAASGFTFSSYHMSWIRQAPGKGLELVAAINSNGINTYYLDTVKGRFTISRDNAKNSLYLQMNSLRAEDTAVYYCARHEDYYGFAMDYWGQGTLVTVSS
VL: AIQMTQSPSSLSASVGDRVTITCKASQSVTNDVAWYQQKPGKAPKLLIYYVSNHYTGVPSRFSGSGSGTDFTLTISSLQPEDFATYFCQQAYRSPWTFGQGTKLEIK
notes: humanized IgG4
B9: Hu26 (antibody, IgG4, V domains shown)
VH: EVQLVESGGGLVQPGGSLRLSCAASGFTFSSYHMSWVRQAPGKGLELVAAISRDGDSTYYPDTVKGRFTISRDNAKNSLYLQMNSLRAEDTAVYYCSRHEDYFGFAMDSWGQGTLVTVSS
VL: AIQMTQSPSSLSASVGDRVTITCKASQSVTNDVAWYQQKPGKAPKLLIYYVSNHYTGVPSRFSGSGSGTDFTLTISSLQPEDFATYFCQQAYRSPWTFGQGTKLEIK
notes: humanized IgG4
B10: Hu53 (antibody, IgG4, V domains shown)
VH: EVQLVESGGGLVKPGGSLRLSCAASGFTFSSYHMSWVRQAPGKGLELVSAINSNGINTYYLDTVKGRFTISRDNAKNSLYLQMNSLRAEDTAVYYCARHEDYYGFAMDYWGQGTLVTVSS
VL: DIQMTQSPSSLSASVGDRVTITCKASQSVSNDVAWYQQKPGKAPKLLIYYVSNRFTGVPSRFSGSGSGTDFTLTISSLQPEDFATYFCQQAYRSPWTFGQGTKLEIK
notes: humanized IgG4
B11: Hu5 (antibody, IgG4, V domains shown)
VH: EVQLVESGGGLVQPGGSLRLSCAASGFTFSSYHMSWVRQAPGKGLELVAAINSNDINTYYLDTVKGRFTISRDIAKNSLYLQMNSLRAEDTAVYYCARHEDYYGFAMDYWGQGTLVTVSS
VL: DIQMTQSPSSLSASVGDRVTITCKASQSVSNDVAWYQQKPGKAPKLLIYYVSNRFTGVPSRFSGSGSGTDFTLTISSLQPEDFATYFCQQAYRSPWTFGQGTKLEIK
notes: humanized IgG4; also called Hu-05
B12: Hu8 (antibody, IgG4, V domains shown)
VH: EVQLVESGGGLVKPGGSLRLSCAASGFTFSSYHMSWVRQAPGKGLELVSAINSNDINTYYLDTVKGRFTISRDIAKNSLYLQMNSLRAEDTAVYYCARHEDYYGFAMDYWGQGTLVTVSS
VL: AIQMTQSPSSLSASVGDRVTITCKASQSVTNDVAWYQQKPGKAPKLLIYYVSNHYTGVPSRFSGSGSGTDFTLTISSLQPEDFATYFCQQAYRSPWTFGQGTKLEIK
notes: humanized IgG4; also called Hu-08

Assays:
[1] = target: T1, hCD112R mFC recombinant protein; test: ELISA, coated hCD112R-ECD-mFC; EC50 COM701/EC50 antibody
Procedure: (§1) A plate was coated with a hCD112R-ECD-mFC protein (1.5 μg/mL) at a fixed concentration, and the humanized anti-CD112R antibodies diluted in a gradient (initial concentration: 1 μg/mL, 2.5-fold gradient dilution, 12 concentration gradients in total) were added to bind to the antigen. HRP-conjugated goat anti-human antibody IgG (Fc specific) (Sigma, A0170) was subjected to a 5000-fold dilution and used as a detection antibody for detection. The color development was performed with 0.1 mg/mL TMB, and finally stopped with 2 M hydrochloric acid. The plate was read at 420 nm/620 nm. EC₅₀ was obtained by fitting with a four-parameter logistic regression (4PL) model. The […] were COM701 (anti-CD112R antibody, Compugen, obtained by expression and purification according to the sequences in US20180280506A1) and the anti-KLH hu-IgG4 antibody.

[2] = target: T1, hCD112R mFC recombinant protein; test: FACS competition, hCD112R mFc on CHO CD112 cells
Procedure: (§2) Cells CHO CD112 overexpressing human CD112 were co-incubated with a hCD112R mFc protein solution (5 μg/mL) prepared in a staining buffer (PBS+1% FBS), and the humanized anti-CD112R antibodies or the control antibodies at different concentrations (initial concentration: 100 μg/mL, 3-fold dilution, 10 concentration gradients) at 4° C. for 30 min. Unbound antibodies were then washed with a staining buffer and the cells were incubated with 1% (v/v) goat anti-mouse IgG Fc fluorescent secondary antibodies (Jackson ImmunoResearch) prepared in a staining buffer at 4° C. for 30 min in the dark. Finally, the cells were collected by using a flow cytometer (BD Canto II), and the fluorescent antibodies bound to the cell surface were detected. Raw data were analyzed by using FlowJo to obtain MFI values, and a four-parameter curve fitting was performed by using GraphPad Prism software to obtain IC₅₀ values. The positive control and the negative control were COM701 (anti-CD112R antibody, Compugen, obtained by expression and purification according to the sequences in US20180280506A1) and the anti-KLH hu-IgG4 antibody, respectively.

[3] = target: T1, hCD112R mFC recombinant protein; test: ELISA, coated hCD112R-ECD-mFC
Procedure: as §1

[4] = target: T2, human CD112R on Jurkat CD112R effector …; test: cell-based or functional assay
[5] = target: T1, hCD112R mFC recombinant protein; test: FACS competition, hCD112R mFc on CHO CD112 cells; IC50 COM701/IC50 antibody
Procedure: as §2

Binder	Relative activity (%) [1]	IC50 [2]	EC50 [3]	EC50, CD112R/CD112 reporter [4]	Relative activity (%), EC50 COM701/EC50 antibody [4]	Relative activity (%) [5]
B1	190%	2.67 µg/mL	0.00459 µg/mL	0.0268 µg/mL	245%	90%
B2	138%	3.48 µg/mL	0.00663 µg/mL	0.0225 µg/mL	332%	69.2%
B3	143%	4.34 µg/mL	0.00275 µg/mL	0.0529 µg/mL	148%	91.6%
B4	120%	4.24 µg/mL	0.00355 µg/mL	0.038 µg/mL	189%	93.9%
B5	129%	2.21 µg/mL	0.00443 µg/mL	0.0225 µg/mL	215%	162%
B6	128%	2.25 µg/mL	0.00518 µg/mL	0.038 µg/mL	135%	159%
B7	141%	4.28 µg/mL	0.00303 µg/mL	0.0577 µg/mL	110%	92.9%
B8	193%	3.39 µg/mL	0.00475 µg/mL	0.0243 µg/mL	276%	71%
B9	190%	2.47 µg/mL	0.00351 µg/mL	0.0353 µg/mL	183%	145%
B10	169%	3.18 µg/mL	0.00541 µg/mL	0.023 µg/mL	314%	75.7%
B11	155%	4.41 µg/mL	0.00275 µg/mL	0.0461 µg/mL	148%	90.2%
B12	127%	4.62 µg/mL	0.00309 µg/mL	0.0633 µg/mL	110%	86.1%
